In PMC5753033 (2017):
Residue numbers refer to the chain shown, from its start.

B1: Mouse profilin 2a (natural protein)
chain: MAGWQSYVDNLMCDGCCQEAAIVGYCDAKYVWAATAGGVFQSITPVEIDMIVGKDREGFFTNGLTLGAKKCSVIRDSLYVDGDCTMDIRTKSQGGEPTYNVAVGRAGRVLVFVMGKEGVHGGGLNKKAYSMAKYLRDSGF
B2: WAVE1 WCA, unlabeled, soluble (domain or fragment)
chain: STLPVISDARSVLLEAIRKGIQLRKVEEQREQEAKHERIENDVATILSRRIAVEYSDSEDDSEFDEVDWLE
B3: Alexa488-labeled WAVE1 WCA (domain or fragment)
chain: B2 chain with T2C
modifications: Alexa488-maleimide on Cys490

Legend:
WAVE1 PRD[F] = WAVE1 PRD[F] (human, UniProt Q92558 277-488, C296 | C407, Texas Red maleimide (KCK variants) or Alexa 546 maleimide (C variants) on the introduced cysteine); experiment: AUC
WAVE1 PRD[F], sequence (Q92558 other isoform, or with tags, fused parts or gaps, change not shown): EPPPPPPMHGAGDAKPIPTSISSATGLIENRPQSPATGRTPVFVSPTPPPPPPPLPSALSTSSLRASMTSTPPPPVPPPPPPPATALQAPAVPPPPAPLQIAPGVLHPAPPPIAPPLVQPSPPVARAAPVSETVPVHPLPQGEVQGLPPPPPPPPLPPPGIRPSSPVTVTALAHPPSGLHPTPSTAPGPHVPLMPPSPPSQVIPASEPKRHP

WAVE1 PRD[E] = WAVE1 PRD[E] (human, UniProt Q92558 277-488, C296 | C407, Texas Red maleimide (KCK variants) or Alexa 546 maleimide (C variants) on the introduced cysteine); experiment: AUC
WAVE1 PRD[E], sequence (Q92558 other isoform, or with tags, fused parts or gaps, change not shown): as above

WAVE1 PRD[C] = WAVE1 PRD[C] (human, UniProt Q92558 277-488, C296 | C407, Texas Red maleimide (KCK variants) or Alexa 546 maleimide (C variants) on the introduced cysteine); experiment: AUC
WAVE1 PRD[C], sequence (Q92558 other isoform, or with tags, fused parts or gaps, change not shown): as above

WAVE1 PRD[D] = WAVE1 PRD[D] (human, UniProt Q92558 277-488, C296 | C407, Texas Red maleimide (KCK variants) or Alexa 546 maleimide (C variants) on the introduced cysteine); experiment: AUC
WAVE1 PRD[D], sequence (Q92558 other isoform, or with tags, fused parts or gaps, change not shown): as above

WAVE1 PRD[A] = WAVE1 PRD[A] (human, UniProt Q92558 277-488, C296 | C407, Texas Red maleimide (KCK variants) or Alexa 546 maleimide (C variants) on the introduced cysteine); experiment: AUC
WAVE1 PRD[A], sequence (Q92558 other isoform, or with tags, fused parts or gaps, change not shown): as above

WAVE1 PRD[B] [1] = molecular target: T1, WAVE1 PRD[B] (human, UniProt Q92558 277-488, C296 | C407, Texas Red maleimide (KCK variants) or Alexa 546 maleimide (C variants) on the introduced cysteine); experiment: AUC
T1 sequence (Q92558 other isoform, or with tags, fused parts or gaps, change not shown): as above

WAVE1 PRD [Null] = WAVE1 PRD [Null] (human, UniProt Q92558 277-488, C296 | C407, Texas Red maleimide (KCK variants) or Alexa 546 maleimide (C variants) on the introduced cysteine); experiment: AUC
WAVE1 PRD [Null], sequence (Q92558 other isoform, or with tags, fused parts or gaps, stated change not applied): as the sequence (Q92558 other isoform, or with tags, fused parts or gaps, change not shown) above

WAVE1 PRD[B] [2] = molecular target: T1, WAVE1 PRD[B]; experiment: AUC; 2:1 binding model, Kd1 (fit)
[3] = molecular target: Native, cytoplasmic actin from Acanthamoeba castellanii, monomeric (Acanthamoeba castellanii); experiment: FP

Row | Binder | Kd (WAVE1 PRD[F]) | Kd (WAVE1 PRD[E]) | Kd (WAVE1 PRD[C]) | Kd (WAVE1 PRD[D]) | Kd (WAVE1 PRD[A]) | Kd (WAVE1 PRD[B] [1]) | Kd (WAVE1 PRD [Null]) | Kd (WAVE1 PRD[B] [2]) | Kd [3]
1 | B1 | 4 µM | 182 µM | 12 µM | 145 µM | 51 µM | 2 µM | 138 µM | 2.07 µM | –
2 | B2 | – | – | – | – | – | – | – | – | 0.068 µM
3 | B3 | – | – | – | – | – | – | – | – | 0.029 µM
